Measurements from patent US20220380463A1 (Adimab, published 2022).

T1: Cynomolgus CD3εδ Fc heterodimer (Cy CD3ε Fc / CD3δ Fc-HIS) (cynomolgus, UniProt Q95LI8 22-100)
T1 chain 1: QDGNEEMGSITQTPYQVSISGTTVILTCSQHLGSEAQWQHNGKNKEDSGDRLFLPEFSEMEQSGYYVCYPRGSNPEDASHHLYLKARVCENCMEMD
T1 chain 2: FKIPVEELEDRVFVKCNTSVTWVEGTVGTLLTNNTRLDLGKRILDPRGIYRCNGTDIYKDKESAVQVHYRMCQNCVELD


Key:
[1] = target: T1, Cynomolgus CD3εδ Fc heterodimer (Cy …); experiment: BLI (Octet), IgG on AHC sensor, pH 7.4
[2] = target: T1, Cynomolgus CD3εδ Fc heterodimer (Cy …); experiment: BLI (Octet), IgG on AHC sensor, pH 6.0
[3] = target: T2, human CD3 on CD3+ Jurkat cells (human, UniProt P07766 23-207); experiment: flow cytometry on CD3+ Jurkat cells, ratio of MFI at pH 6.0 to pH 7.4
T2 construct: whole, on cells; Native CD3 complex on cells; the other CD3 chains are not specified for this assay; also called Human CD3+ Jurkat
T2 sequence (P07766 23-207): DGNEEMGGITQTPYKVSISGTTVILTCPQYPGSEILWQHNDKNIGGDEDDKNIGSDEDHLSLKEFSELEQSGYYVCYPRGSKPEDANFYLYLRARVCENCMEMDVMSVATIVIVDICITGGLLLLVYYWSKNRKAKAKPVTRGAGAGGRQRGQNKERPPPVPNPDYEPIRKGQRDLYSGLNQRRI
Summary of the method: (§1)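 Jurkat cells incubated 20 min on ice with 100 nM yeast-produced IgG in PBS + 0.1% BSA at pH 6.0 or pH 7.4, with all washes and staining at the same pH. Bound antibody detected with anti-human IgG-RPE, dead cells excluded by propidium iodide; MFI measured by flow cytometry.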

[4] = target: T2, human CD3 on CD3+ Jurkat cells; experiment: flow cytometry, 100 nM IgG on CD3+ Jurkat cells, pH 7.4
Summary of the method: as §1

[5] = target: T2, human CD3 on CD3+ Jurkat cells; experiment: flow cytometry, 100 nM IgG on CD3+ Jurkat cells, pH 6.0
Summary of the method: as §1

Binder	Kd [1] [nM]	koff [1] [s⁻¹]	kon [1] [M⁻¹ s⁻¹]	koff [2] [s⁻¹]	MFI pH 6.0/MFI pH 7.4 [3]	MFI pH 7.4 [4] [MFI]	MFI pH 6.0 [5] [MFI]
SAD10319_P01_E02 (ADI-57304) (antibody, V domains shown, IgG; also called Ab240) VH: QVQLVQSGAEVKKPGASVKVSCKASGYTFTSDFMHWVRQAPGQRLEWMGWINPATGATKYSQKFQGRVTITRDTSASTAYMELSSLRSEDTAVYYCARDAYGHYFYDHWGQGTLVTVSS VL: DIVMTQSPDSLAVSLGERATINCKSSQSLLNARTGKNYLAWYQQKPGQPPKLLIYWASTRESGVPDRFSGSGSGTDFTLTISSLQAEDVAVYYCKQSYSRRTFGGGTKVEIK	145	0.0355	245000	0.0248	–	–	–
SAD10319_P02_G06 (ADI-48632) (antibody, V domains shown, IgG; also called Ab15) VH: QVQLVQSGAEVKKPGASVKVSCKASGYTFTSYAMHWVRQAPGQRLEWMGWINPDTGATVYSQKFQGRVTITRDTSASTAYMELSSLRSEDTAVYYCARDAYHHYFYDVWGQGTLVTVSS VL: DIVMTQSPDSLAVSLGERATINCKSSQSLLNARTGKNYLAWYQQKPGQPPKLLIYWASTRESGVPDRFSGSGSGTDFTLTISSLQAEDVAVYYCKQSYSRRTFGGGTKVEIK	–	–	–	–	15.1	107	1620
SAD10319_P02_E06 (ADI-57323) (antibody, V domains shown, IgG; also called Ab12) VH: QVQLVQSGAEVKKPGASVKVSCKASGYTFADYAMHWVRQAPGQRLAWMGWINPHTGATFYSQKFQGRVTITRDTSASTAYMELSSLRSEDTAVYYCARDAYGRYFYDHWGQGTLVTVSS VL: DIVMTQSPDSLAVSLGERATINCKSSQSLLNARTGKNYLAWYQQKPGQPPKLLIYWASTRESGVPDRFSGSGSGTDFTLTISSLQAEDVAVYYCKQSYSRRTFGGGTKVEIK	60.6	0.0267	440000	0.00251	–	–	–
SAD10319_P02_E04 (ADI-57311) (antibody, V domains shown, IgG; also called Ab252) VH: QVQLVQSGAEVKKPGASVKVSCKASGYTFESYYMHWVRQAPGQRLERMGSIVAGTGATKYSQKFQGRVTITRDTSASTAYMELSSLRSEDTAVYYCARDHYGRYFYDVWGQGTPVTVSS VL: DIVMTQSPDSLAVSLGERATINCKSSQSLLNARTGKNYLAWYQQKPGQPPKLLIYWASTRESGVPDRFSGSGSGTDFTLTISSLQAEDVAVYYCKQSYSRRTFGGGTKVEIK	64.1	0.0208	324000	0.0215	–	–	–
SAD10319_P02_H06 (ADI-48633) (antibody, V domains shown, IgG; also called Ab16) VH: QVQLVQSGAEVKKPGASVKVSCKASGYTFTAYVMHWVRQAPGQRLEWMGSIDAGTGNTKYSQKFQGRVTITRDTSASTAYMELSSLRSEDTAVYYCARDAYGHYFYDHWGQGTLVTVSS VL: DIVMTQSPDSLAVSLGERATINCKSSQSLLNARTGKNYLAWYQQKPGQPPKLLIYWASTRESGVPDRFSGSGSGTDFTLTISSLQAEDVAVYYCKQSYSRRTFGGGTKVEIK	–	–	–	–	1.9	1450	2790
SAD10319_P02_A06 (ADI-57320) (antibody, V domains shown, IgG; also called Ab8) VH: QVQLVQSGAEVKKPGASVKVSCKASGYTFDAYAMHWVRQAPGQRLEWMGWIDAGTGATKYSQKFQGRVTITRDTSASTAYMELSSLRSEDTAVYYCARDHYGHYFYDVWGQGTLVTVSS VL: DIVMTQSPDSLAVSLGERATINCKSSQSLLNARTGKNYLAWYQQKPGQPPKLLIYWASTRESGVPDRFSGSGSGTDFTLTISSLQAEDVAVYYCKQSYSRRTFGGGTKVEIK	30.2	0.0115	383000	0.0327	–	–	–
SAD10319_P02_C06 (ADI-57322) (antibody, V domains shown, IgG; also called Ab10) VH: QVQLVQSGAEVKKPGASVKVSCKASGYTFTSYAMHWVRQAPGQRLEWMGWINPVTGATVYSQKFQGRVTITRDTSASTAYMELSSLRSEDTAVYYCARDAYGHYFYDVWGQGTLVTVSS VL: DIVMTQSPDSLAVSLGERATINCKSSQSLLNARTGKNYLAWYQQKPGQPPKLLIYWASTRESGVPDRFSGSGSGTDFTLTISSLQAEDVAVYYCKQSYSRRTFGGGTKVEIK	51.3	0.0255	496000	0.023	–	–	–
SAD10319_P02_F04 (ADI-57312) (antibody, V domains shown, IgG; also called Ab253) VH: QVQLVQSGAEVKKPGASVKVSCKASGYTFDSYTMHWVRQAPGQRLEWMGYINPDTGATYYSQKFQGRVTITRDTSASTAYMELSSLRSEDTAVYYCARDAYHHYFYDVWGQGTLVTVSS VL: DIVMTQSPDSLAVSLGERATINCKSSQSLLNARTGKNYLAWYQQKPGQPPKLLIYWASTRESGVPDRFSGSGSGTDFTLTISSLQAEDVAVYYCKQSYSRRTFGGGTKVEIK	117	0.0301	257000	0.0317	–	–	–
SAD10319_P03_A08 (ADI-48636) (antibody, V domains shown, IgG; also called Ab230) VH: QVQLVQSGAEVKKPGASVKVSCKASGYTFTDYDMHWVRQAPGQRLEWMGWIDAGTGLTKYSQKFQGRVTITRDTSASTAYMELSSLRSEDTAVYYCARDHYGHYFYDVWGQGTLVTVSS VL: DIVMTQSPDSLAVSLGERATINCKSSQSLLNARTGKNYLAWYQQKPGQPPKLLIYWASTRESGVPDRFSGSGSGTDFTLTISSLQAEDVAVYYCKQSYSRRTFGGGTKVEIK	–	–	–	–	25.9	35	897
SAD10319_P03_B09 (ADI-48639) (antibody, V domains shown, IgG; also called Ab24) VH: QVQLVQSGAEVKKPGASVKVSCKASGYTFTEYDMHWVRQAPGQRLEWMGWIDAGTGATVYSQKFQGRVTITRDTSASTAYMELSSLRSEDTAVYYCARDAYGRYFYDHWGQGTLVTVSS VL: DIVMTQSPDSLAVSLGERATINCKSSQSLLNARTGKNYLAWYQQKPGQPPKLLIYWASTRESGVPDRFSGSGSGTDFTLTISSLQAEDVAVYYCKQSYSRRTFGGGTKVEIK	–	–	–	–	16.5	55	897

Next, values leading:

Kd [1] [nM]	koff [1] [s⁻¹]	kon [1] [M⁻¹ s⁻¹]	koff [2] [s⁻¹]	MFI pH 6.0/MFI pH 7.4 [3]	MFI pH 7.4 [4] [MFI]	MFI pH 6.0 [5] [MFI]	Binder
–	–	–	–	3.3	73	244	SAD10319_P03_E08 (ADI-48637) (antibody, V domains shown, IgG; also called Ab21) VH: QVQLVQSGAEVKKPGASVKVSCKASGYTFNDYAMHWVRQAPGQRLEWMGYINGTGATVYSQKFQGRVTITRDTSASTAYMELSSLRSEDTAVYYCARDAYHHYFYDVWSQGTLVTVSS VL: DIVMTQSPDSLAVSLGERATINCKSSQSLLNARTGKNYLAWYQQKPGQPPKLLIYWASTRESGVPDRFSGSGSGTDFTLTISSLQAEDVAVYYCKQSYSRRTFGGGTKVEIK
–	–	–	–	23.8	84	2000	SAD10319_P03_G08 (ADI-48638) (antibody, V domains shown, IgG; also called Ab22) VH: QVQLVQSGAEVKKPGASVKVSCKASGYTFSSYDMHWVRQAPGQRLEWMGWIDAGTGFTKYSQKFQGRVTITRDTSASTAYMELSSLRSEDTAVYYCARDAYGHYFYDHWGQGTLVTVSS VL: DIVMTQSPDSLAVSLGERATINCKSSQSLLNARTGKNYLAWYQQKPGQPPKLLIYWASTRESGVPDRFSGSGSGTDFTLTISSLQAEDVAVYYCKQSYSRRTFGGGTKVEIK
–	–	–	–	11.6	54	623	SAD10319_P03_E07 (ADI-48635) (antibody, V domains shown, IgG; also called Ab17) VH: QVQLVQSGAEVKKPGASVKVSCKASGYTFESYDMHWVRQAPGQRLEWMGWIDAGTGATTYSQKFQGRVTITRDTSASTAYMELSSLRSEDTAVYYCARDAYHHYFYDVWGQGTLVTVSS VL: DIVMTQSPDSLAVSLGERATINCKSSQSLLNARTGKNYLAWYQQKPGQPPKLLIYWASTRESGVPDRFSGSGSGTDFTLTISSLQAEDVAVYYCKQSYSRRTFGGGTKVEIK
–	–	–	–	14.7	44	651	SAD10319_P03_C07 (ADI-48634) (antibody, V domains shown, IgG; also called Ab17) VH: QVQLVQSGAEVKKPGASVKVSCKASGYTFESYDMHWVRQAPGQRLEWMGWIDAGTGATTYSQKFQGRVTITRDTSASTAYMELSSLRSEDTAVYYCARDAYHHYFYDVWGQGTLVTVSS VL: DIVMTQSPDSLAVSLGERATINCKSSQSLLNARTGKNYLAWYQQKPGQPPKLLIYWASTRESGVPDRFSGSGSGTDFTLTISSLQAEDVAVYYCKQSYSRRTFGGGTKVEIK
–	–	–	–	6.1	55	332	SAD10319_P04_E12 (ADI-48642) (antibody, V domains shown, IgG; also called Ab43) VH: QVQLVQSGAEVKKPGASVKVSCKASGYTFTSYPMHWVRQAPGQRLEWMGWIDAGTGLTTYSQKFQGRVTITRDTSASTAYMELSSLRSEDTAVYYCARDHYHRYFYDMWGQGTLVTVSS VL: DIVMTQSPDSLAVSLGERATINCKSSQSLLNARTGKNYLAWYQQKPGQPPKLLIYWASTRESGVPDRFSGSGSGTDFTLTISSLQAEDVAVYYCKQSYSRRTFGGGTKVEIK
–	–	–	–	1.1	52	59	SAD10319_P04_G11 (ADI-48641) (antibody, V domains shown, IgG; also called Ab39) VH: QVQLVQSGAEVKKPGASVKVYCKASGYTFTTYEMHWVRQAPGQRLEWMGSINAGDANTKYSQKFQGRVTITRDTSASTAYMELSSLRSEDTAVYYCARDAYHHYFYDVWGQGTLVTVSS VL: DIVMTQSPDSLAVSLGERATINCKSSQSLLNARTGKNYLAWYQQKPGQPPKLLIYWASTRESGVPDRFSGSGSGTDFTLTISSLQAEDVAVYYCKQSYSRRTFGGGTKVEIK
–	–	–	–	13.8	56	772	SAD10319_P03_E09 (ADI-48640) (antibody, V domains shown, IgG; also called Ab26) VH: QVQLVQSGAEVKKPGASVKVSCKASGYTFLSYDMHWVRQAPGQRLEWMGWIDAGTGATTYSQKFQGRVTITRDTSASTAYMELSSLRSEDTAVYYCARDAYHHYFYDVWGQGTLVTVSS VL: DIVMTQSPDSLAVSLGERATINCKSSQSLLNARTGKNYLAWYQQKPGQPPKLLIYWASTRESGVPDRFSGSGSGTDFTLTISSLQAEDVAVYYCKQSYSRRTFGGGTKVEIK
